{
  "source": "the DeepSol protein solubility set",
  "data": [
    {"assay": "soluble on expression in E. coli; label from the status in PepcDB or PDB records", "values": [
      {"sequence": "MSLSQVQVDRALAGLIVRAPLPAGWRAERMSALDVAAVAAVEQAAFAFPWSRGNFEDSLKSGHLGIVLRDGGNQVAGYLILMPVVDEMHLLNVTVAPAWQRQGLGRWLLRAAQALTLAHGFASLLLEVRPSNAGAIALYRRVGFAEIGRRKRYYPAENNTREDALVMRIACEAGGVEAAEGHHHHHH", "soluble on expression in E. coli": "not soluble"},
      {"sequence": "MGSDKIHHHHHHMWYKNNSFRFTRRFFMRVRVSAVFEQAGEILCMKYIYGGKEVFALPGGGVDKDIPLQEAIVNEWKEELGIKVDIGDIILIGEAPAGKRHPQTLHVVFEAREIRGTPKVRSDATHSLDVAWVPLEKLSSLPLYPDVGKQLSASFSEEPRRSVAFISNCMERGYW", "soluble on expression in E. coli": "not soluble"},
      {"sequence": "MSLVQWISPLDNSIVIASKVKILRNIKGIKFTKLLNEEEFNDLLSMVLGRLKEIDILDKCYVVKLKDGEEKIIDYYKENFGLIKYFENKDNLIFIMNKNGEFNILLNEEEHIGIECTNSGLSLREVYSKVDNLDDLIEEKIHYSFDSELGYLTSNIKNLGTALRAKVFIHLPLLSSNNLIRIIKNALKEEGITLKSIYNSGNKDVGNIYEVSNIKTLGMSEKDILDSLISITNKLILREKNQRDNLSKDEYIELKDDILRSLGVLRNTYSIDREGHHHHHH", "soluble on expression in E. coli": "not soluble"},
      {"sequence": "PIAQIHILEGRSDEQKETLIREVSEAISRSLDAPLTSVRVIITEMAKGHFGIGGELASKVRR", "soluble on expression in E. coli": "soluble"},
      {"sequence": "MFFIGIFGIENKQKEVKQLENIYCKTCSTRTMGTLIKSYEYFHIFFIPIFRWNEKYYVMCKRCNSIYEISKEKGKAIENGEINEVNLEDMTLIQEGQVYGKRAVKKVCPNCGKTVDGDYNYCPYCGSEILEHHHHHH", "soluble on expression in E. coli": "not soluble"},
      {"sequence": "RTMGFYVAKGNPKNITGWEDFRRDDLTMVNRERGCGTRILLDEHLRLLNIDGNKINGYSRESLSHLAIASIISRNGADIGIGNEKTGLQVANIDFIPIQRERYDLVIRKDDIEKPPFKAIIDILQSETFKSELMGIGGYDLTQTG", "soluble on expression in E. coli": "not soluble"},
      {"sequence": "MGSDKIHHHHHHMTQSSLDPATVELTADQQQAAEAFSSWLDDANHGNPFVLSGFAGSGKTFLSMRLLRQVEDAGLCWTVVAPTHKAVGVLRQALDLEGLRPTWYPSTIHRLLRLKLKRQGDLELCESTEQTAQSLEQLGLVLIDESSMIDSTLLGLALQCAHPFRTRLVFVGDPAQLPPIGEAQSPVFSMHRACTATLQQVVRHQGPVLRLASRLRDGSLPCQSPPCFPLIEDELGRVGCMDQNNWLKRAQAALQSAAIQDNPDAARILCYTNRSLEQLVPHARRAIHGDMADQLPVLPGEVLIARKAVMAPASRSGAETGEEPDMVLGSNREVVVRDVTPERCDLAEFGLEGQSDWSVPVVDTLTAKVRAGELDLELRLQPPVGSEGRRLLDTTLQRLRVEAKAAGKSDGRSLWRRFFLLRDAFASLGPAAVLTVHRSQGSSFGEVFVAGDVFWPQDLSLRRQLVYVAVSRARTGVWLVGKTGAAAQSRWLDQLRSQSSDR", "soluble on expression in E. coli": "not soluble"},
      {"sequence": "MIELAELTKTAGGLVIDQFTQKRERPDSRTMIGSGKLEQMRWAIEVGEIDTVIFNDRLSPRQNVNLEEALGVKVIDRMQLILDIFAMRARSHEGMLQVEEAQLNYLLPRLVGQGIMLSRQGGGIGSKGPGETKLETDRRYIRTRIENIDKALKKVEKTRENIRQKRSKSGIFRIGLIGYTNAGKSSIMNALVGLDKEQYEQNELFATLDATTKAVKLVEDFTVSLTDTVGFIQNLPTELIKAFKSTLEESANVDLLIHVVDASNPHHEIHEQTVLKIMEDLKLTNIPVLNVYNKMDIAPSDFLPTLSPSLQLSIKSESGVQWLKTAILEKLHELFDAFELELPYEKAYQLPELRKSALVQSVVEGEKGYLIKGLIAPELSWKLPNNLEHHHHHH", "soluble on expression in E. coli": "not soluble"},
      {"sequence": "ALYNVDAGHRAVIFDRFRGVQDIVVGEGTHFLIPWVQKPIIFDCRSRPRNVPVITGSKDLQNVNITLRILFRPVASQLPRIFTSIGEDYDERVLPSITTEILKSVVARFDAGELITQRELVSRQVSDDLTERAATFGLILDDVSLTHLTFGKEFTEAVEAKQVAQQEAERARFVVEKAEQQKKAAIISAEGDSKAAELIANSLATAGDGLIELRKLEAAEDIAYQLSRSRNITYLPAGQSVLLQLPQ", "soluble on expression in E. coli": "not soluble"},
      {"sequence": "MGHHHHHHSHAPNCTRKSTQSDLAFFRFPRDPARCQKWVENCRRADLEDKTPDQLNKHYRLCAKHFETSMICRTSPYRTVLRDNAIPTIFDLTSHLNNP", "soluble on expression in E. coli": "not soluble"},
      {"sequence": "MGSDKIHHHHHHMPSWFTNVQLGFDMATSLTIVGAAVTWVIREKKQAEAEKVRGINQQVRSTSLKKVQDVLFEMEDKFSVLINETQTYENMIDNRVRKVNDQLDFSRLNLAIKRDDQFLIKAIDRLQAIREELGQFYELIQVRRYSLIPLLDAIEEGDKYIGVFQQNIDEVGDAYNQVTSGNVSLLKELEAVISMLNKQFGDELVDVSDEVKKELFQKISTDETFMKPIQSIIYDEDYFYWVQRFVPAGREDDYLEKVVRPSKIEDKELCSEVMVHFILALIGKNHELISQVLRTASGSVMKARIECKDILISLSAISHKLVMDNNGETLEKVIAKYESEEYFGRNVTIR", "soluble on expression in E. coli": "not soluble"},
      {"sequence": "MTLDYIYHSGFAIEAEGVTVIIDYYKDSSETEHNRGIVHDYLLQRPGKLYVLATHFHPDHFNREILTWKEARPDIRYIFSKDILKSHRAKPEDATYIKKGETYEDETIRIEAFGSTDVGSSFLIHLQDWNIFHAGDLNNWHWSEESTEAEIRKANGDFLAEVKYLKEKAPKIDLALFPVDRRMGKDYMKGAKQFIEQIKTTIFVPMHFSEDYEGGNALRDFAENAGCRFVSITHRGESFEITK", "soluble on expression in E. coli": "not soluble"},
      {"sequence": "MCVSSAVCVLSRLSLERFSNFSANFVDNFLLVARFARGETLKNGIVLEISKICPKLYISPVPKLFDCSTDNLLFIYILFASKVRMKEMSTPTGLPALNGDVLSAINDMIGRVIIINTTDKKRYSGVLGAVSQDFDFGMQCVVEITKENENNLLRTESECRDKMVFHYSDIVDFAYVTQEIKKQHAVSKFVTDRQYHGDTPIEGEELQEWNGGEEDGLGGSIEDDVVVAGGQTAARRSNNHNNGTGWSVNDMFAANEKMNVVSTFKEDLTQYTTVEVVGTDEDRARAERLAREIESNSSSKFMANLENDDDERDLDKITRQEDFENGNGRKRNNNSFNQQQQQRRNPNIAPNGQPVNRRAEGLRGDRRNSGSSSANNSRYGAPAAAQQNYSQNQQQQQGQKGYRRQNEENDWQMAKGKGQNQGHDHSFRQQQKQMLDPRPNNNVKPADDKAQSATTATAAAGGSRVTDLKNWGNEFSIATAPKDQAPAVPAGNSGSAWNRGPPSSLVAKGSSNESTPPPTTNGEEAETKKEEAPSTSVDVAAAPVQNVQNDAEKHQEDDNVSVTSENDSVITSKSSSFKFNINAPEFKPRVAPATPTATTPVQNEYHPQQQPHPAMMAPQQGPPAPGMGMVPPHMGGPQNQGQPPMMMWQQTGQQQQGGGGYPQNHQFPIQHVPMQGVPGQMYGPGAATPVTVAQQPNQQHQVPTSAAGGQNHQLRDGEYREKQPLYMPYGPPQMVPVTSQQFYHSQYQGQMQQAAPYQMKMMPQQAPQGAYQQRYQQPQVYMMPPQGQQQQPRYQGPPPPQQQQQQQPQQQQFSGEQSRPQSHPNSQPTTPGPRGELPKMSGAPQNGNMQAESSSNASHSGSTSSQSGQRSGSPPGAVPPPPPPQQQHQQQQHPPHHAPPHVGAPPPQMMQQQQQHIQQYMQVFYPMIMPQQMPMQQNQHPQQSLMGERSDQGFPTSGYFDYRTMPNYQQQQQQQQQQMHRQNSLPQQFQGNQGVNPSGQQSGPPPPPPPSQQGTPRDQQHSQSPP", "soluble on expression in E. coli": "not soluble"},
      {"sequence": "MAHHHHHHMSIIHYSLQYNCKSFCIFTYFLIPSYWKCSTYNIPQYRSQNKNNFISFCIQFLVQQCVLIIHKVFNLPNTSLRNYFPQINKQINNQTFLNVVVKRKLNHGKLWGAHV", "soluble on expression in E. coli": "soluble"},
      {"sequence": "VSQRPFRDRVLHLLALRPYRKAELLLRLQKDGLTQADKDALDGLLQQVANMSAKDGTCTLQDCMYKDVQKDWPGYSEGDQQLLKRVLVRKL", "soluble on expression in E. coli": "soluble"},
      {"sequence": "QTFGHGQARAFVLSPVMPVWDQGAFAGPLIEHFIRSGHQVTVFDSLSLPAVPDECFSGFAERWADALEPWGVPDVLVGVALGGALAQALAGISFLSVTPALLLLSSPSKADALLDARLGRMADLAEQGHVRQAKRLLDELVLPEGQAHAEQDRFDTETDALLAPQGRRLVRGFRLLDGVNVSERLCDYEGRVLSVFGGKSQLVGADHVLRTKGSNQHS", "soluble on expression in E. coli": "not soluble"},
      {"sequence": "MGSSHHHHHHSQDPDPMQSFADAKEFFQYSAGQWQSRRVTHHLPFRRAESGGSNIQVETLEKDDPRIIEICQMHDMDASLSVGGSYVTWAGTMQWDKDDENHEGSTVFALIPDADNPRQGKLLRERGYAEIVPVAGEYHLDHEDGLVLTTEYETMTIYERFWFANPDLRLRTSTVKRFGGFNTTTFCMEERIQTSPVTATAAAETNPLYAISGW", "soluble on expression in E. coli": "soluble"},
      {"sequence": "MGKYTEQAKLAAVKEYCAGKAGLRDVAHRHDVDFSCLRQWVAAYQIHGPAALKEKRRQRYSDEFKLAVLKRMHDERLSLRQTAALFDIRQFGIINLWQRLFDEGALNASSKPPKKAGRPRKMTTPLPPVNSSPINDESRSRDELLAEVKQLRMEVDYLKKLDALVQKKQRIAQQKKRKSLEHHHHHH", "soluble on expression in E. coli": "not soluble"},
      {"sequence": "MGHHHHHHSHMPKHPSQSTVCQKGTPNSASKTKDKVNKRNERGETRLHRAAIRGDARRIKELISEGADVNVKDFAGWTALHEACNRGYYDVAKQLLAAGAEVNTKGLDDDTPLHDAANNGHYKVVKLLLRYGGNPQQSNRKGETPLKVANSPTMVNLLLGKGTYTSSEESSTESSEE", "soluble on expression in E. coli": "soluble"},
      {"sequence": "MGCGLRKLEDPDESSPGKIFSTLKRPQVETKTEFAYEYALLDFTLQASTNPDVIKINSVLDIVAKVEDYYLKGYVVGAIHPVIQPVGQRKHLPASHLYRAVLSRLKLSPKHSAAGGQRRARLVMEECPLTCEAQANDAAKELMDKINAAAKRGMKFVGLVSQCYLPSMHCNGASHDGVAESGLHVRQDSQDNCKGWNEGALGGHLSESGVEEEPQHESGQHQTERNSSPSYANPKRGEAPDGKLYMVFNAFEEDAASWAYQEGVLSMKVTRKGAVISALDANWLELTTFYYKQGFSLIDSFVCWETPKVAKLEAFQLSVSDKLPKGKQKYSFQSLSGIPASGLA", "soluble on expression in E. coli": "soluble"},
      {"sequence": "MPEITVLMPVRNGERYIKESIDSVLNQTLTDFEFLIIDDGSTDRTVEIIQGYTDKRIRLVRKEHQFIQNLNEGLELASGSYIARMDADDIMHTERLRIQLKRMKKNPDITVCGTWAKIFSDKGNERNVSHLGYGIIHEPVLELLKYNMLLHPSVMIKKEFLLNHHIEYQNYPCVEDYKLWFDIAKAGGILFVEPQELLMFRRSDTQVTVTKKKEMSLGSIRLRKEILLYLLSIYNNKTLNSLLSDFENLEKNKWMSNEDIFRFFVNLFNRIQRDTMVLEHHHHHH", "soluble on expression in E. coli": "soluble"},
      {"sequence": "MGSDKIHHHHHHMVDSLKKPGFEEIRPGVKVPAKETLLTPRFYTTDFDEMARMDISVNEDELLAILEEFRTDYNRHHFVRDAEFEKSWDHIDGDTRRLFVEFLERSCTAEFSGFLLYKELGRRLKDKSPVLAECFNLMSRDEARHAGFLNKAMSDFNLSLDLGFLTKSRNYTFFKPKFIFYATYLSEKIGYWRYITIYRHLEAHPEDRIYPIFRFFENWCQDENRHGDFFDAIMKSQPQMLNDWKAKLWSRFFLLSVFATMYLNDIQRKDFYASIGLDARDYDIYVIKKTNETAGRVFPVILDVDSPEFYERLDICVENSEKLSAIASSNTPKFLQFFQKLPVLASTGWQLLRLYLMKPIDAVSAQGAAR", "soluble on expression in E. coli": "not soluble"},
      {"sequence": "MSEGWNIAVLGATGAMGEALLETLAERQFPVGEIYALARNESAGEQLRFGGKTITVQDAAEFDWTQAQLAFFVAGKEATAAWVEEATNSGCLVIDSSGLFALEPDVPLVVPEVNPFVLTDYRNRNVIAVPDSLTSQLLAALKPLIDQGGLSRISVTSLISASAQGKKAVDALAGQSAKLLNGIPIDEEDFFGRQLAFNMLPLLPDSEGSVREERRIVDEVRKILQDEGLMISASVVQAPVFYGHAQMVNFEALRPLAAEEARDAFAQGEDIVLSEENEFPTQVGDASGTPHLSVGCVRNDYGMPEQVQFWSVADNVRFGGALMAVKIAEKLVQEYLY", "soluble on expression in E. coli": "not soluble"}
    ]}
  ]
}
